Values quoted from earlier work, collected in patent publication US20240024386A1, “MICROBIOME MEDIATED INDUCTION OF IMMUNE TOLERANCE AND RESOLUTION OF INFLAMMATION” (INFINANT HEALTH, INC., priority 2020, published 2024).

Tested on: COVID-19
Details: triple therapy with lopinavir—ritonavir and ribavirin

B1: IFNβ-1b: interferon beta-1b, used in triple therapy with lopinavir—ritonavir and ribavirin (protein, UniProt P01574 22-187, looked up, variant C17S)
Interferon beta: MSYNLLGFLQRSSNFQSQKLLWQLNGRLEYCLKDRMNFDIPEEIKQLQQFQKEDAALTIYEMLQNIFAIFRQDSSSTGWNETIVENLLANVYHQINHLKTVLEEKLEKEDFTRGKLMSSLHLKRYYGRILHYLKAKEYSHCAWTIVRVEILRNFYFINRLTGYLRN
modifications: lacks Met1; non-glycosylated
notes: interferon beta-1b, used in triple therapy with lopinavir—ritonavir and ribavirin
period of viral shedding for COVID-19: shortened
